# B1: unnamed (peptide)
# chain: TKRKRPARLIFYDSK
# B2: unnamed (peptide)
# chain: RRLRDKYKLPIVDAD
# B3: unnamed (peptide)
# chain: NFFRKKLGIPRKLKR
# B4: unnamed (peptide)
# chain: LLRRTIPKRPFYHVL
# What was measured:
# Assay in all cases: SPOT array
# Sla1-3, P32790 = biological target: T1, Sla1-3, P32790; details: median of control spots 5475
# T1 sequence (P32790 344-424, looked up): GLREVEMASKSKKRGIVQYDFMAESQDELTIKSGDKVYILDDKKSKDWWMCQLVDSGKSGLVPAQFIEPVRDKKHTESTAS
# Boi1, P38041 = biological target: T2, Boi1, P38041; details: median of control spots 1162
# T2 sequence (P38041 1-86, looked up): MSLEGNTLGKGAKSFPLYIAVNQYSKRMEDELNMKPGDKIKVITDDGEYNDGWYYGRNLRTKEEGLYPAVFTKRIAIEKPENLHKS
# Myo5, Q04439 = biological target: T3, Myo5, Q04439; details: median of control spots 471
# T3 sequence (Q04439 1072-1160, looked up): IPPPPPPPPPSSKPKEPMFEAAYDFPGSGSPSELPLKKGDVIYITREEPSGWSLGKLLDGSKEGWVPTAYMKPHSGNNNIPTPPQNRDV
# Rvs167, P39743 = details: median of control spots 2707
# Boi2, P39969 = biological target: T4, Boi2, P39969; details: median of control spots 1161
# T4 sequence (P39969 32-116, looked up): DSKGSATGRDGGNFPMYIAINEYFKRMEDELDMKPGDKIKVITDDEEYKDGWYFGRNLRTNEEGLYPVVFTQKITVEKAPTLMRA
# Bem1-2, P29366 = details: median of control spots 4347
# Lsb4, P32793 = biological target: T5, Lsb4, P32793; details: median of control spots 397
# T5 sequence (P32793 402-468, looked up): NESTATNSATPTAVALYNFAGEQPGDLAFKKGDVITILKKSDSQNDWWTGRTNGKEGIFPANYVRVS
# Fus1, P11710 = biological target: T6, Fus1, P11710; details: median of control spots 1200
# T6 sequence (P11710 432-512, looked up): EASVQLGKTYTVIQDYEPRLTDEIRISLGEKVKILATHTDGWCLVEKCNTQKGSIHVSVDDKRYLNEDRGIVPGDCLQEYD
# Bud14, P27637 = biological target: T7, Bud14, P27637; details: median of control spots 956
# T7 sequence (P27637 247-328, looked up): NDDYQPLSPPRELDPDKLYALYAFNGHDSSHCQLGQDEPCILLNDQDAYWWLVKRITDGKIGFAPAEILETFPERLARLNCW
# Pin3, Q06449 = biological target: T8, Pin3, Q06449; details: median of control spots 2171
# T8 sequence (Q06449 53-122, looked up): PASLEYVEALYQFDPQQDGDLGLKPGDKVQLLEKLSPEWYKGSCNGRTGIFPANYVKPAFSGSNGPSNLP
# Lsb3, P43603 = biological target: T9, Lsb3, P43603; details: median of control spots 406
# T9 sequence (P43603 385-451, looked up): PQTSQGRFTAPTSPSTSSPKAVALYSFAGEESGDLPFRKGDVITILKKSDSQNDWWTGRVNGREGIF
# Bzz1-1, P38822 = biological target: T10, Bzz1-1, P38822; details: median of control spots 4446
# T10 sequence (P38822 478-572, looked up): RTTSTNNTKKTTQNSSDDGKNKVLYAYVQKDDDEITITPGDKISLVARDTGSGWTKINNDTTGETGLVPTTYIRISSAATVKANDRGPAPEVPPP
# Myo3, P36006 = details: median of control spots 468
# Nbp2, Q12163 = biological target: T11, Nbp2, Q12163; details: median of control spots 357
# T11 sequence (Q12163 103-180, looked up): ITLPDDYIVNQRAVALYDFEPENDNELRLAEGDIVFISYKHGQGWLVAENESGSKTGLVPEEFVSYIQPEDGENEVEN
# Pex13, P80667 = biological target: T12, Pex13, P80667; details: median of control spots 1341
# T12 sequence (P80667 295-386, looked up): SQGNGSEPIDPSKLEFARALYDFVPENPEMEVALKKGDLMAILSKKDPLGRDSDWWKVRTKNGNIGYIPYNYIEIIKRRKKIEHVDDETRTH
# Sho1, P40073 = details: median of control spots 1148
# Lsb1, P53281 = biological target: T13, Lsb1, P53281; details: median of control spots 388
# T13 sequence (P53281 45-122, looked up): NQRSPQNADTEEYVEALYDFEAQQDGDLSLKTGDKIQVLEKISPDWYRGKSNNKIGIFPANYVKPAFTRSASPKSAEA
# Hse1, P38753 = biological target: T14, Hse1, P38753; details: median of control spots 1727
# T14 sequence (P38753 208-285, looked up): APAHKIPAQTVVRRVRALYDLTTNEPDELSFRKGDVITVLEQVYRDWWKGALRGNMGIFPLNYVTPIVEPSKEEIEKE
# Hof1, Q05080 = biological target: T15, Hof1, Q05080; details: median of control spots 4086
# T15 sequence (Q05080 590-669, looked up): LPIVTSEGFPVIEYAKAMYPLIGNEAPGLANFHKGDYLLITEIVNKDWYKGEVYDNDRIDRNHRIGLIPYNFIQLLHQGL
# GST = details: median of control spots 978
# Abp1, P15891 = biological target: T16, Abp1, P15891; details: median of control spots 935
# T16 sequence (P15891 535-592, looked up): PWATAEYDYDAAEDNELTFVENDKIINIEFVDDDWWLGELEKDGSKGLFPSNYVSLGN
# Sla1-2, P32790 = biological target: T17, Sla1-2, P32790; details: median of control spots 712
# T17 sequence (P32790 60-140, looked up): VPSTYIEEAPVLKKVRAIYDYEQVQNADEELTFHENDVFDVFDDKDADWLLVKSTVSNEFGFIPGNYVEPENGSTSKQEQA
# Cyk3, Q07533 = biological target: T18, Cyk3, Q07533; details: median of control spots 1451
# T18 sequence (Q07533 1-83, looked up): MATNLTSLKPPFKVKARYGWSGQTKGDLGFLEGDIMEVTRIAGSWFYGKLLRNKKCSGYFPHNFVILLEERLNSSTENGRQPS
# Cdc25, P04821 = biological target: T19, Cdc25, P04821; details: median of control spots 969
# T19 sequence (P04821 50-136, looked up): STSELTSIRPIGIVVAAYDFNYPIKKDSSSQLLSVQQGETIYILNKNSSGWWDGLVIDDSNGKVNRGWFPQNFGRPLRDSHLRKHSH
# Bbc1, P47068 = biological target: T20, Bbc1, P47068; details: median of control spots 796
# T20 sequence (P47068 1-78, looked up): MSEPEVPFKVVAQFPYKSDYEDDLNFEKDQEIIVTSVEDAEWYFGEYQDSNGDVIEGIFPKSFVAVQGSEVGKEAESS
# Bzz1-2, P38822 = biological target: T21, Bzz1-2, P38822; details: median of control spots 4538
# T21 sequence (P38822 568-633, looked up): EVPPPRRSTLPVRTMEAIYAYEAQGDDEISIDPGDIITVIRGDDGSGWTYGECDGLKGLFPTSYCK
# Bem1-1, P29366 = details: median of control spots 4282
# Chain of Bem1-1, P29366 (P29366 55-141): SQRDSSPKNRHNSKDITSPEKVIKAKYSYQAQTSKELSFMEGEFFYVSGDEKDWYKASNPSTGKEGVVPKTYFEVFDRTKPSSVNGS
# Chain of Bem1-2, P29366 (P29366 139-227): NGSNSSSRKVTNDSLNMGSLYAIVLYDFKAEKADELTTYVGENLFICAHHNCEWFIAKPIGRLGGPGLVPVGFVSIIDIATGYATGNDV
# Chain of Rvs167, P39743 (P39743 419-482): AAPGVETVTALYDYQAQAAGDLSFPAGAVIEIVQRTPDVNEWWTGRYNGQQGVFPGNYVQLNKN
# Chain of Sho1, P40073 (P40073 287-367): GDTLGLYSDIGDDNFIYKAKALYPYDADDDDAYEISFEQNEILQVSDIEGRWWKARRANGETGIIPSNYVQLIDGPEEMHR
Binder,"SPOT intensity (Sla1-3, P32790)","SPOT intensity (Boi1, P38041)","SPOT intensity (Myo5, Q04439)","SPOT intensity (Rvs167, P39743)","SPOT intensity (Boi2, P39969)","SPOT intensity (Bem1-2, P29366)","SPOT intensity (Lsb4, P32793)","SPOT intensity (Fus1, P11710)","SPOT intensity (Bud14, P27637)","SPOT intensity (Pin3, Q06449)","SPOT intensity (Lsb3, P43603)","SPOT intensity (Bzz1-1, P38822)","SPOT intensity (Myo3, P36006)","SPOT intensity (Nbp2, Q12163)","SPOT intensity (Pex13, P80667)","SPOT intensity (Sho1, P40073)","SPOT intensity (Lsb1, P53281)","SPOT intensity (Hse1, P38753)","SPOT intensity (Hof1, Q05080)",SPOT intensity (GST),also measured
B1,33,39,3,0,9,6,7,29,29,0,6,0,7,183,1,91,4,11,4,1,"SPOT intensity (Abp1, P15891): 157; SPOT intensity (Sla1-2, P32790): 2; SPOT intensity (Cyk3, Q07533): 7; SPOT intensity (Cdc25, P04821): 61; SPOT intensity (Bbc1, P47068): 308; SPOT intensity (Bzz1-2, P38822): 5; SPOT intensity (Bem1-1, P29366): 0"
B2,34,6,0,1,0,2,0,58,26,0,0,0,0,7,0,19,48,9,9,0,"SPOT intensity (Abp1, P15891): 18; SPOT intensity (Sla1-2, P32790): 0; SPOT intensity (Cyk3, Q07533): 1; SPOT intensity (Cdc25, P04821): 18; SPOT intensity (Bbc1, P47068): 14; SPOT intensity (Bzz1-2, P38822): 2; SPOT intensity (Bem1-1, P29366): 0"
B3,58,14,0,3,2,13,1,219,43,7,1,0,3,72,14,107,234,130,29,0,"SPOT intensity (Abp1, P15891): 99; SPOT intensity (Sla1-2, P32790): 0; SPOT intensity (Cyk3, Q07533): 4; SPOT intensity (Cdc25, P04821): 138; SPOT intensity (Bbc1, P47068): 101; SPOT intensity (Bzz1-2, P38822): 7; SPOT intensity (Bem1-1, P29366): 1"
B4,245,7,0,31,2,108,2,14,13,0,2,0,0,100,12,26,139,43,52,1,"SPOT intensity (Abp1, P15891): 18; SPOT intensity (Sla1-2, P32790): 0; SPOT intensity (Cyk3, Q07533): 0; SPOT intensity (Cdc25, P04821): 44; SPOT intensity (Bbc1, P47068): 184; SPOT intensity (Bzz1-2, P38822): 13; SPOT intensity (Bem1-1, P29366): 0"

# Source: article PMC2756588
